# Results: patent US20030190634
# Like-named read-outs stand apart in the source and are kept apart here.
# Key:
# [1] = target: Thermus sp. AK16D DNA ligase (Thermus sp. AK16D) (UniProt Q9ZFY8); details: initial ligation rate, 65 C
# [2] = target: Tth DNA ligase K294R K294R (Thermus thermophilus) (UniProt P26996); details: initial ligation rate, 65 C
# [3] = target: T1, T4 DNA ligase (Enterobacteria phage T4?) (UniProt P00970); details: initial ligation rate, 0.5 nM enzyme, 37 C
# T1 sequence: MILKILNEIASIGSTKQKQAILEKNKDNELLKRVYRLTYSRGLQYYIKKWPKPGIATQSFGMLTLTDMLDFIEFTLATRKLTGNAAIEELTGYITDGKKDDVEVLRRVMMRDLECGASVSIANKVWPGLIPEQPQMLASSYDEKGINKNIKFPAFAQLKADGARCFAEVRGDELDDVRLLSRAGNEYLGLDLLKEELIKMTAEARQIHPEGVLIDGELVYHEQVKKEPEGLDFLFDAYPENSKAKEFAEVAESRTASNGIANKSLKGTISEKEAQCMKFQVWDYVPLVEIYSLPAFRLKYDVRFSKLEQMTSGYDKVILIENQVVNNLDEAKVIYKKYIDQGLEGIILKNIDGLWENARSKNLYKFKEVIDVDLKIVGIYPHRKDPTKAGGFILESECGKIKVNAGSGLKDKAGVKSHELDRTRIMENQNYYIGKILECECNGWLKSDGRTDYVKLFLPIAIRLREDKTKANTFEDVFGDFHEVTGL
# [4] = target: Tth DNA ligase wild type (Thermus thermophilus) (UniProt P26996); details: initial ligation rate, 65 C
# [5] = target: Aquifex sp. DNA ligase (Aquifex sp.) (UniProt O66880); details: initial ligation rate, 65 C
# [6] = 12.5 nM enzyme, NAD+, 10 mM MgCl2
# Chain of Tth DNA ligase wild type (Thermus thermophilus) (P26996 whole entry): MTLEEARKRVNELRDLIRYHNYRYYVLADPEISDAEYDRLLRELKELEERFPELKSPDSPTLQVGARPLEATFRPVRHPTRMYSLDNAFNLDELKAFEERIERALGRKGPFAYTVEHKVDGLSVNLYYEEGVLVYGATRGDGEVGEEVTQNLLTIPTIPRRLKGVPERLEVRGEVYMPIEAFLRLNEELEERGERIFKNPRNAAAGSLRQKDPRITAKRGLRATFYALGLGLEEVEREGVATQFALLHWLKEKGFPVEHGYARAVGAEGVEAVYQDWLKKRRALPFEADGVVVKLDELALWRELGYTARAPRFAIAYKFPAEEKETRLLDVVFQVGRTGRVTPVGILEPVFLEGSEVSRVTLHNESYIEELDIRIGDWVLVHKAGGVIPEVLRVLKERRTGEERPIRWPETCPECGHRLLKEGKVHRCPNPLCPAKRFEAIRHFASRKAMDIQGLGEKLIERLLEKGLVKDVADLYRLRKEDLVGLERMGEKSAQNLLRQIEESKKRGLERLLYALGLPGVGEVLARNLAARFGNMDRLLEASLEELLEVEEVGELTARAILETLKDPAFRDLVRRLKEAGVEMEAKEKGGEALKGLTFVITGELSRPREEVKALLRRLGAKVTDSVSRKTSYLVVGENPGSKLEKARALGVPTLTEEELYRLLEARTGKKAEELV
# Chain of Tth DNA ligase K294R K294R (Thermus thermophilus) (P26996 whole entry K294R): as the sequence (P26996 whole entry) above, with K294R counted along it
# Chain of Aquifex sp. DNA ligase (Aquifex sp.) (O66880 whole entry): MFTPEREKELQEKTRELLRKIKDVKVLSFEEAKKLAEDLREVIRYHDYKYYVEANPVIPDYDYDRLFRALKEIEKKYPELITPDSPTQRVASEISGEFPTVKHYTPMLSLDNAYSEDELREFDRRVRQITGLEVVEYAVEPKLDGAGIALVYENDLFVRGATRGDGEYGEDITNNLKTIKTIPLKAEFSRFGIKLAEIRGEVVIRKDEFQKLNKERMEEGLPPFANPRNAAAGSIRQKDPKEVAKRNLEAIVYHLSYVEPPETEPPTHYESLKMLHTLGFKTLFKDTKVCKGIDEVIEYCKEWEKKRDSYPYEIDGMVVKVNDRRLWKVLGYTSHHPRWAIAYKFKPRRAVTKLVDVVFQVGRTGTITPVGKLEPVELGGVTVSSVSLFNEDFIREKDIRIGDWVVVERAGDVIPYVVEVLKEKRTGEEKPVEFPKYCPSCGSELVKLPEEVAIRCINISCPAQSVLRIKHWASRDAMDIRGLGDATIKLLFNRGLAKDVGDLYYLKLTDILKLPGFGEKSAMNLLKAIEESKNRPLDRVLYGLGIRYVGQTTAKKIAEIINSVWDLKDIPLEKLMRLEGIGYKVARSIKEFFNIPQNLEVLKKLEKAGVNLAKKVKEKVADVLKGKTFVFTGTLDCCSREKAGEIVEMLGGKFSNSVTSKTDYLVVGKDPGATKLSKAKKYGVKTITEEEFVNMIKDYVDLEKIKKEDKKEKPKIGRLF
# Chain of Thermus sp. AK16D DNA ligase (Thermus sp. AK16D) (Q9ZFY8 whole entry): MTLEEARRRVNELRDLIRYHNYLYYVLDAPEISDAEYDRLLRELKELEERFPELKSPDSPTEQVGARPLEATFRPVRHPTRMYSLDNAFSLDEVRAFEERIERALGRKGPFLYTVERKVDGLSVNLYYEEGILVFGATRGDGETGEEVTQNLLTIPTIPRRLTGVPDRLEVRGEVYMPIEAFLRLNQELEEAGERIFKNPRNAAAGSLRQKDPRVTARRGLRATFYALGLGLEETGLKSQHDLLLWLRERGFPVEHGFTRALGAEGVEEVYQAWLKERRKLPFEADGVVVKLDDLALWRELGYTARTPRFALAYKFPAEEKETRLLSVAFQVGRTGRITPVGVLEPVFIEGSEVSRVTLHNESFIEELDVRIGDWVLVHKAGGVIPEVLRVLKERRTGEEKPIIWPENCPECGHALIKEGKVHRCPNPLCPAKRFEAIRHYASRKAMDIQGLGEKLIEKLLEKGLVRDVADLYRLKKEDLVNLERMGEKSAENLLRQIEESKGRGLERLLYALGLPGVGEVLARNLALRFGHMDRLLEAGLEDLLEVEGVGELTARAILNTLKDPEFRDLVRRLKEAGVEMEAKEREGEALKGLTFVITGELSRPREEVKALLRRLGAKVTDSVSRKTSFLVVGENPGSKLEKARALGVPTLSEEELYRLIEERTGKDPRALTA
substance,measurement,setting,value
"nicked duplex, C-G match at 3'-end",activity (fmol/ (time unit not given)),[1]; [6],130
same,activity (fmol/ (time unit not given)),[2]; [6],150
same,activity (fmol/ (time unit not given)),"[3]; 10 mM MgCl2, 12.5 nM substrate",140
same,activity (fmol/ (time unit not given)),"[4]; 1.25 nM enzyme as printed, NAD+, 10 mM MgCl2",55
same,activity (fmol/ (time unit not given)),[5]; [6],99
"nicked duplex, T-G mismatch at 3'-end",activity (fmol/ (time unit not given)),[1]; fidelity 5200,0.025
same,activity (fmol/ (time unit not given)),[2]; fidelity 5300,0.029
same,activity (fmol/ (time unit not given)),[3]; fidelity 50,2.8
same,activity (fmol/ (time unit not given)),[4]; fidelity 840,0.065
same,activity (fmol/ (time unit not given)),[5]; fidelity 3500,0.029
"nicked duplex, T-G mismatch at penultimate 3'-end",activity (fmol/ (time unit not given)),[1]; fidelity 1100,0.12
same,activity (fmol/ (time unit not given)),[2]; fidelity 400,0.38
same,activity (fmol/ (time unit not given)),[3]; fidelity 19,7.1
same,activity (fmol/ (time unit not given)),[4]; fidelity 190,0.29
same,activity (fmol/ (time unit not given)),[5]; fidelity 380,0.26
